From article PMC6688928 come the findings set out here.

In experiment [1] the target is FLAG-NaVAb KAV/E96C/Q150C (Hi5 cells, crosslinking assay) (UniProt A8EVM5). Put plainly: cross-linking.
In experiment [2] the target is FLAG-NaVAb E96C/Q150C (Hi5 cells, crosslinking assay) (UniProt A8EVM5). In words: cross-linking.
Experiment [3] deals with NaVAb/V100C/Q150C Δ28, disulfide-crosslinked. In words: cross-linking.
For experiment [4], the target named is FLAG-NaVAb KAV/G94C/Q150C (Hi5 cells, crosslinking assay) (UniProt A8EVM5). Put plainly: cross-linking.
In experiment [5] the target is FLAG-NaVAb V100C/Q150C (Hi5 cells, crosslinking assay) (UniProt A8EVM5). Put plainly: cross-linking.
Experiment [6] addresses MBP-NaVAb/KAV/G94C/Q150C, disulfide-crosslinked (UniProt A8EVM5). Put plainly: cross-linking.
For experiment [7] the target is unchanged. In words: cryo-EM structure.
Experiment [8] deals with FLAG-NaVAb G94C/Q150C (Hi5 cells, crosslinking assay) (UniProt A8EVM5). Put plainly: cross-linking.

As for “FLAG-NaVAb KAV/E96C/Q150C (Hi5 cells, crosslinking assay) (from UniProt A8EVM5 1-267) (natural protein)”, in experiment [1], the percent crosslinked in tetramers is 80% and the stoichiometry N – broadly, the number of molecules, sites or subunits per partner or assembly – stood at 4.
For “FLAG-NaVAb E96C/Q150C (Hi5 cells, crosslinking assay) (from UniProt A8EVM5 1-267) (natural protein)”, in experiment [2], the percent formation of disulfide-crosslinked tetramers amounted to 40% and the stoichiometry N came to 4.
With “NaVAb/V100C/Q150C Δ28, disulfide-crosslinked (domain or fragment)”, in experiment [3], the stoichiometry N was 4.
For “FLAG-NaVAb KAV/G94C/Q150C (Hi5 cells, crosslinking assay) (from UniProt A8EVM5 1-267) (natural protein)”, in experiment [4], the percent crosslinked in tetramers amounted to 80% and the stoichiometry N amounted to 4.
In experiment [5], “FLAG-NaVAb V100C/Q150C (Hi5 cells, crosslinking assay) (from UniProt A8EVM5 1-267) (natural protein)” returned a percent formation of disulfide-crosslinked tetramers of 80% and a stoichiometry N of 4.
Turning to “MBP-NaVAb/KAV/G94C/Q150C, disulfide-crosslinked (from UniProt A8EVM5 5-267) (natural protein)”, the stoichiometry N in experiment [6] and in experiment [7] was 4 throughout.
In experiment [8], “FLAG-NaVAb G94C/Q150C (Hi5 cells, crosslinking assay) (from UniProt A8EVM5 1-267) (natural protein)” displayed a percent formation of disulfide-crosslinked tetramers of 20% and a stoichiometry N of 4.
